IntAct's records for PubMed 15143163

B1: Low-density lipoprotein receptor-related protein 5 (Homo sapiens), O75197 (parent)
chain: MEAAPPGPPWPLLLLLLLLLALCGCPAPAAASPLLLFANRRDVRLVDAGGVKLESTIVVSGLEDAAAVDFQFSKGAVYWTDVSEEAIKQTYLNQTGAAVQNVVISGLVSPDGLACDWVGKKLYWTDSETNRIEVANLNGTSRKVLFWQDLDQPRAIALDPAHGYMYWTDWGETPRIERAGMDGSTRKIIVDSDIYWPNGLTIDLEEQKLYWADAKLSFIHRANLDGSFRQKVVEGSLTHPFALTLSGDTLYWTDWQTRSIHACNKRTGGKRKEILSALYSPMDIQVLSQERQPFFHTRCEEDNGGCSHLCLLSPSEPFYTCACPTGVQLQDNGRTCKAGAEEVLLLARRTDLRRISLDTPDFTDIVLQVDDIRHAIAIDYDPLEGYVYWTDDEVRAIRRAYLDGSGAQTLVNTEINDPDGIAVDWVARNLYWTDTGTDRIEVTRLNGTSRKILVSEDLDEPRAIALHPVMGLMYWTDWGENPKIECANLDGQERRVLVNASLGWPNGLALDLQEGKLYWGDAKTDKIEVINVDGTKRRTLLEDKLPHIFGFTLLGDFIYWTDWQRRSIERVHKVKASRDVIIDQLPDLMGLKAVNVAKVVGTNPCADRNGGCSHLCFFTPHATRCGCPIGLELLSDMKTCIVPEAFLVFTSRAAIHRISLETNNNDVAIPLTGVKEASALDFDVSNNHIYWTDVSLKTISRAFMNGSSVEHVVEFGLDYPEGMAVDWMGKNLYWADTGTNRIEVARLDGQFRQVLVWRDLDNPRSLALDPTKGYIYWTEWGGKPRIVRAFMDGTNCMTLVDKVGRANDLTIDYADQRLYWTDLDTNMIESSNMLGQERVVIADDLPHPFGLTQYSDYIYWTDWNLHSIERADKTSGRNRTLIQGHLDFVMDILVFHSSRQDGLNDCMHNNGQCGQLCLAIPGGHRCGCASHYTLDPSSRNCSPPTTFLLFSQKSAISRMIPDDQHSPDLILPLHGLRNVKAIDYDPLDKFIYWVDGRQNIKRAKDDGTQPFVLTSLSQGQNPDRQPHDLSIDIYSRTLFWTCEATNTINVHRLSGEAMGVVLRGDRDKPRAIVVNAERGYLYFTNMQDRAAKIERAALDGTEREVLFTTGLIRPVALVVDNTLGKLFWVDADLKRIESCDLSGANRLTLEDANIVQPLGLTILGKHLYWIDRQQQMIERVEKTTGDKRTRIQGRVAHLTGIHAVEEVSLEEFSAHPCARDNGGCSHICIAKGDGTPRCSCPVHLVLLQNLLTCGEPPTCSPDQFACATGEIDCIPGAWRCDGFPECDDQSDEEGCPVCSAAQFPCARGQCVDLRLRCDGEADCQDRSDEADCDAICLPNQFRCASGQCVLIKQQCDSFPDCIDGSDELMCEITKPPSDDSPAHSSAIGPVIGIILSLFVMGGVYFVCQRVVCQRYAGANGPFPHEYVSGTPHVPLNFIAPGGSQHGPFTGIACGKSMMSSVSLMGGRGGVPLYDRNHVTGASSSSSSSTKATLYPPILNPPPSPATDPSLYNMDMFYSSNIPATARPYRPYIIRGMAPPTTPCSTDVCDSDYSASRWKASKYYLDLNSDSDPYPPPPTPHSQYLSAEDSCPPSPATERSYFHLFPPPPSPCTDSS
partner: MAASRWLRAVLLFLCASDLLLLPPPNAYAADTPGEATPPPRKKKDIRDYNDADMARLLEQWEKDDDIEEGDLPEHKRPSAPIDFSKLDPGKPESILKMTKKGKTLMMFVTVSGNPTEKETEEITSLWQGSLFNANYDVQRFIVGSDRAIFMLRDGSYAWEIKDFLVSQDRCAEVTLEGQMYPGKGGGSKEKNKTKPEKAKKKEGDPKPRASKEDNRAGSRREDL

Variants of: B1
Conditions: with mesd_mouse Mesd

Row | effect of a mutation on the interaction | Variant
1 | disrupting interaction | G171V
